Data on two molecules can be found in publication PMC5564291 (Cell, 2016).

Common to all, as to assay: ITC
For assay [1], the target named is PSD-95 PDZ3 (aa R306–E398) (human) (UniProt P78352).
For assay [2], the target named is PSD-95 PDZ3-C (aa R306-S412) (human) (UniProt P78352).
Assay [3] deals with PSD-95 PSG WT (aa R306-L721) (human, UniProt P78352-3 306-721).

For the molecule “N-terminal thioredoxin-tagged last 30 residues of SynGAP (SynGAP PBM) (domain or fragment)”, in assay [1], the equilibrium dissociation constant (Kd) (as a rule, the concentration at which binding is half-saturated) is 27 µM. In assay [2], this molecule came in with a fold higher affinity than PDZ3 of 15 fold.

B1: SynGAP CC-PBM L-D&K-D mutant (L1202D and K1252D) (domain or fragment, mouse, UniProt J3QQ18 1147-1308, looked up)
chain: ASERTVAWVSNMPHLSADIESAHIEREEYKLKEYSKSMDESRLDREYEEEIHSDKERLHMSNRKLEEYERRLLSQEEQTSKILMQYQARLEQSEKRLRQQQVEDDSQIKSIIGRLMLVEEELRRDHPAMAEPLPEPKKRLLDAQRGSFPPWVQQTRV
Consider B1, for which the binding result in assay [3] is “binds”.
